Experimental data published in patent publication US8709741B2, “Methods of diagnosing a plasmodium infection” (priority 2009, dated 2014).
Entries after “also recorded” stand apart in the source; their conditions may differ. Read-outs that look alike come from different tables or passages of the source.

Assays:
[1] = test system: P. falciparum FcB1/Colombian strain; assay: Anti-Plasmodium activity assay (dose-response, 3H-hypoxanthine incorporation), culture with human serum; assay type: cell-based; conditions: for inhibition of P. falciparum development in vitro: standard P. falciparum cultures with serum
Protocol: (§1) The chloroquine-resistant P. falciparum FcB1/Colombian strain was used. Under the following culture conditions, the in vitro life cycle of the FcB1 strain was 48 hours. Cultures were grown in complete medium consisting of RPMI 1640 (Life Technologies, Inc.) supplemented with 11 mM glucose, 27.5 mM NaHCO3, 100 UI/mL penicillin, 100 μg/mL streptomycin, adjusted to pH 7.4 before addition of heat-inactivated human serum (A+ blood group, 8% final) or Albumax II® (0.5% final), according to the procedure of Trager and Jensen (1976). Parasites were routinely grown at 37° C. in human A+ RBCs (Red blood cells) at a 2% haematocrit and 2-6% parasitemia, in a 3% CO2, 6% O2 and 91% N2 atmosphere. Semi-synchronized cultures were established by Sorbitol (Lambros) treatment. Highly synchronized cultures (4 hour-window synchronization) were obtained by successive Plamion (Pasvol) and Sorbitol treatments. Parasitaemia and stage distribution were determined by optical examination of Diff-Quick stained culture smears. Parasitaemia (expressed in percent) is hundred times the number of parasitized erythrocytes divided by the total number of erythrocytes.
(§2) Dried preparations of the purified recombinant human sPLA2s were re-suspended at high concentration (usually 50 μM) in RPMI 0.05% BSA, and then tested individually for their capacity to inhibit the in vitro intra-erythrocytic development of P. falciparum. Dose-response assays based on ^3H-hypoxanthine incorporation by growing parasites were performed as in Guillaume et al. (2004). Radioactivity was measured with a 1450 Microbeta counter (Wallac, Perkin Elmer). Percentage of growth inhibition was calculated from the parasite-associated radioactivity compared with control without sPLA2. Values for the IC50 were determined from dose-response curves.

[2] = Specific activities of sPLA2s on human plasma (NEFA release, NEFA-C kit); assay type: biochemical; conditions: for Specific activity ± SD (μmol NEFA/min × mg enzyme): whole human plasma, 37° C., linear part of kinetic curve, mean of three experiments
Protocol: Kinetic analysis of human plasma hydrolysis by sPLA2s was performed by mixing on ice 50 μL of crude plasma with recombinant sPLA2s at various final concentrations (respectively 2×, 5× and 10× the IC50 value). At time zero, the mixture was transferred to 37° C. Samples (7 μL) were taken after 5, 15, 30 and 60 minutes of incubation and quickly frozen at −20° C. An aliquot of plasma without enzyme was similarly processed. Concentration of non-esterified fatty acids (NEFAs) in each sample was measured by a discontinuous enzymatic method using the NEFA-C test kit from WAKO, following manufacturer's instructions. The amount of NEFAs in each enzyme-containing plasma sample was subtracted for NEFAs in enzyme-free plasma sample. Specific activity for each of the sPLA2s was determined from the linear part of the curve [NEFA]=f(t). Experiment was repeated three times with plasmas from different donors and different batches of sPLA2s.
Specific activities of sPLA2s on human plasma. Hydrolysis of plasma phospholipids by human and venom sPLA2s was assayed using different incubation times and enzymes concentrations. Hydrolysis was assessed by measuring the amount of NEFAs in samples using the colorimetric assay developed by WAKO (NEFA-C kit). Enzymatic production of NEFAs was corrected for endogenous production of NEFAs measured in the absence of sPLA2. Specific activity for each of the sPLA2s was determined from the linear part of the kinetic curve. Values are the mean of three independent experiments. SD: standard deviation. Anti-P. falciparum activities (IC50) of the respective sPLA2s are given for comparison.

[3] = Rosengren et al., 2006; cited from earlier work
[4] = Enzymatic hydrolysis of purified lipoproteins (NEFA); assay type: biochemical, human; conditions: 15 h at 37° C.
Protocol: CM/VLDL, LDL and HDL were purified from human plasma and used either fresh (F) or after minimal oxidization by air and light (Ox). After phospholipid content determination, plasma, LDL and HDL were adjusted to 1.6 mg PL/mL final concentration in PBS calcium. Because low amount was available, the CM/VLDL fraction was adjusted to 1.0 mg PL/mL. Each sample was incubated for 15 hours at 37° C., alone or in the presence of recombinant human GX sPLA2 (hGX PLA2; 25 nM), recombinant human GIIF sPLA2 (hGIIF PLA2; 125 nM), bee venom sPLA2 (bvPLA2; 0.18 nM) and Naja mossambica mossambica venom sPLA2 (Naja PLA2; 0.05 nM). NEFAs were quantified using the NEFA-C kit (WAKO). Values are the mean±SD of triplicate measurements. They were normalized by subtracting NEFA amount in the absence of enzyme. Two independent experiments with lipoproteins from different plasmas were performed, which gave similar qualitative results. Results from one experiment are shown;
Plasma and purified LDL and HDL were adjusted to 1.67 mg phospholipid (PL)/mL final concentration in PBS. Because purification yielded low amount of CM/VLDL, the CM/VLDL fraction was adjusted to 1.00 mg PL/mL. CaCl2 (1 mM final) was added to the lipoprotein fractions. 200 μL of each fraction were deposited in a 96-well plate and incubated for 15 hours at 37° C., alone or in the presence of recombinant human GX sPLA2 (hGX PLA2, 25.0 nM), recombinant human GIIF sPLA2 (hGIIF PLA2, 125.0 nM), bee venom sPLA2 (bvPLA2, 0.18 nM) and Naja mossambica mossambica venom sPLA2 (Naja PLA2, 0.05 nM). NEFAs were measured in triplicate using the NEFA-C kit (WAKO). Value from each fraction was normalized by subtracting the NEFA amount in the corresponding fraction without enzyme. Two independent experiments with lipoproteins from different plasmas were performed, which gave similar qualitative results. According to the experiment, maximum hydrolysis reached 50% or 65% of total PLs in the fraction. […]

P. falciparum = assay: Anti-Plasmodium activity assay in Albumax II (serum substitute); assay type: cell-based; conditions: Albumax II instead of serum
Protocol: as §1, with “Highly synchronized cultures (4 hour-window synchronization) were obtained by successive Plamion (Pasvol) and Sorbitol treatments.” left out, “Parasitaemia (expressed in percent) is hundred times the number of parasitized erythrocytes divided by the total number of erythrocytes.” left out
as §2, with “Dose-response assays based on ^3H-hypoxanthine incorporation by growing parasites were performed as in Guillaume et al. (2004).” left out, “curves. […]” for “curves.”

[5] = culture in human red blood cells and serum, mean of independent dose-response assays, read-out: IC50 ± SD (anti-P. falciparum activity)
[6] = Table II, read-out: IC50 (nM), anti-P. falciparum activity given for comparison

Molecule	IC50 [1, 5]	inhibition of P. falciparum development in vitro [1]	also measured
IB: recombinant human group IB secreted phospholipase A2	> 1250 nM	non-toxic	
IID: recombinant human group IID secreted phospholipase A2	> 250 nM	non-toxic	
IIE: recombinant human group IIE secreted phospholipase A2 (protein, UniProt Q9NZK7 20-142, looked up) Group IIE secretory …: NLVQFGVMIEKMTGKSALQYNDYGCYCGIGGSHWPVDQTDWCCHAHDCCYGRLEKLGCEPKLEKYLFSVSERGIFCAGRTTCQRLTCECDKRAALCFRRNLGTYNRKYAHYPNKLCTGPTPPC	> 250 nM	non-toxic	
III: recombinant human group III secreted phospholipase A2 (protein, UniProt Q9NZ20 20-509, looked up) Group 3 secretory …: GSPALRWYRTSCHLTKAVPGNPLGYLSFLAKDAQGLALIHARWDAHRRLQSCSWEDEPELTAAYGALCAHETAWGSFIHTPGPELQRALATLQSQWEACRALEESPAGARKKRAAGQSGVPGGGHQREKRGWTMPGTLWCGVGDSAGNSSELGVFQGPDLCCREHDRCPQNISPLQYNYGIRNYRFHTISHCDCDTRFQQCLQNQHDSISDIVGVAFFNVLEIPCFVLEEQEACVAWYWWGGCRMYGTVPLARLQPRTFYNASWSSRATSPTPSSRSPAPPKPRQKQHLRKGPPHQKGSKRPSKANTTALQDPMVSPRLDVAPTGLQGPQGGLKPQGARWVCRSFRRHLDQCEHQIGPREIEFQLLNSAQEPLFHCNCTRRLARFLRLHSPPEVTNMLWELLGTTCFKLAPPLDCVEGKNCSRDPRAIRVSARHLRRLQQRRHQLQDKGTDERQPWPSEPLRGPMSFYNQCLQLTQAARRPDRQQKSWSQ		non-toxic	
V: recombinant human group V secreted phospholipase A2 (protein, UniProt P39877 21-138, looked up) Phospholipase A2 group V: GLLDLKSMIEKVTGKNALTNYGFYGCYCGWGGRGTPKDGTDWCCWAHDHCYGRLEEKGCNIRTQSYKYRFAWGVVTCEPGPFCHVNLCACDRKLVYCLKRNLRSYNPQYQYFPNILCS	162 ± 90.9 nM	active against P. falciparum	IC50 [1, 6]: 162 ± 90.9 nM; Specific activity ± SD (μmol NEFA/min × mg enzyme) [2]: 0.33 ± 0.09 μmol NEFA/min × mg enzyme; hydrolysis of serum [3]: found active
IIF: recombinant human group IIF secreted phospholipase A2, full length (protein, UniProt Q9BZM2 21-168, looked up) Group IIF secretory …: SLLNLKAMVEAVTGRSAILSFVGYGCYCGLGGRGQPKDEVDWCCHAHDCCYQELFDQGCHPYVDHYDHTIENNTEIVCSDLNKTECDKQTCMCDKNMVLCLMNQTYREEYRGFLNVYCQGPTPNCSIYEPPPEEVTCSHQSPAPPAPP	14.3 ± 10.4 nM	active against P. falciparum	IC50 [1, 6]: 14.3 ± 13.4 nM; hydrolysis of triglyceride-rich lipoproteins (CM/VLDL) ([4]; 125 nM): hydrolysed poorly; preferential order of lipoprotein hydrolysis ([4]; each sPLA2 at approximately 10×IC50): same preferential order than GX sPLA2; increase of IC50 value in Albumax II relative to its value in serum (P. falciparum): approximately 17.5 fold; Specific activity ± SD (μmol NEFA/min × mg enzyme) [2]: 0.92 ± 0.30 μmol NEFA/min × mg enzyme
XIIB: recombinant human group XIIB sPLA2-like protein (protein, UniProt Q9BX93 20-195, looked up) Group XIIB secretory …: QSDTSPDTEESYSDWGLRHLRGSFESVNSYFDSFLELLGGKNGVCQYRCRYGKAPMPRPGYKPQEPNGCGSYFLGLKVPESMDLGIPAMTKCCNQLDVCYDTCGANKYRCDAKFRWCLHSICSDLKRSLGFVSKVEAACDSLVDTVFNTVWTLGCRPFMNSQRAACICAEEEKEEL	> 250 nM	non-toxic	
IIA: recombinant human group IIA secreted phospholipase A2 (inflammatory type) (protein, UniProt P14555 21-144, looked up) Phospholipase A2, membrane …: NLVNFHRMIKLTTGKEAALSYGFYGCHCGVGGRGSPKDATDRCCVTHDCCYKRLEKRGCGTKFLSYKFSNSGSRITCAKQDSCRSQLCECDKAAATCFARNKTTYNKKYQYYSNKHCRGSTPRC	> 1250 nM		inhibition of P. falciparum development in vitro ([1]; listed as GIIA): non-toxic; inhibition of P. falciparum development in vitro ([1]; listed as GIIA sPLA2): clearly inactive; also recorded: does not exhibit any inhibitory activity; hydrolysis of plasma ([2]; high concentration (1 μM), not shown): inefficient at hydrolysing plasma; hydrolysis of serum [3]: found inactive
XIIA: recombinant human group XIIA secreted phospholipase A2 (protein, UniProt Q9BZM1 23-189, looked up) Group XIIA secretory …: QEQAQTTDWRATLKTIRNGVHKIDTYLNAALDLLGGEDGLCQYKCSDGSKPFPRYGYKPSPPNGCGSPLFGVHLNIGIPSLTKCCNQHDRCYETCGKSKNDCDEEFQYCLSKICRDVQKTLGLTQHVQACETTVELLFDSVIHLGCKPYLDSQRAACRCHYEEKTDL	> 250 nM	non-toxic	
